From US7763418B2, “Detection of Rho proteins” (Cytoskeleton, Inc., priority 2005, dated 2010)

Target: T1, Rac1 (61L) binding to POSH-GBD (Homo sapiens, UniProt P63000, Q61L)
T1 construct: His; purchased Cytoskeleton Inc. R6101
Test: Rac1:POSH G-LISA competition (drug discovery application)
Procedure: Active Rho protein (typically 7-15 μg total cell lysate or 1-5 ng of constitutively active recombinant protein) were either added directly to the effector bound G-LISA plate (Rac1 and Cdc42 G-LISAs) or diluted with an equal volume of Binding Buffer (20% PEG 8000, Sigma, St. Louis, Mo.) prior to adding to effector bound plates (RhoA G-LISA). The reactions were incubated for 30 minutes at 4° C. on a microtiter titer plate shaker after which wells were washed once with 200 μl of PBST (PBS pH 7.2, 0.05% Tween-20) and immediately treated with 200 μl of Antigen Presenting Buffer (1% trichloroacetic acid (TCA)) for 2-5 minutes at room temperature. Wells were then washed three times with 200 μl each of PBST and primary antibody is added typically at 1 μg/ml (RhoA specific), 0.25 μg/ml (Rac1 specific), 1 μg/ml (Cdc42 specific) and incubated at room temperature for 45 minutes (incubation at 4° C. gave similar results). Wells are washed three times with 200 μl each of PBST and incubated with appropriate secondary antibody for 45 minutes at room temperature (incubation at 4° C. gave similar results). […] After three washes each of 200 μl PBST the activated Rho proteins are detected using absorbance or luminescence detection as described below. […]

B1: ROCK-GST: RhoA effector ROCK-GBD peptide, negative control inhibitor in Rac1:POSH G-LISA (protein)
chain: EAEQYFSTLYKTQVKELKEEIEEKNRENLKKIQELQNEKETLATQLDLAETKAESEQLARGLLEEQYFELTQESKKAASRNRQEITDKDHTVSRLEEANSMLTKDIEILRRENEELTEKMKKAEEEYKLEKEEEISNLKAAFEKNINTERTLKTQAVNKLAEIMNRKDFKIDRKKANT
modifications: left off: a dimerising Fc or GST
IC50 relative to PAK: approximately 80 times
